From paper PMC9744909, “Functional crosstalk between the cohesin loader and chromatin remodelers” (Nature Communications, 2022) come the findings set out here.

T1: Scc2 subunit of the cohesin loader (S. cerevisiae, UniProt Q04002 1-1493)
T1 construct: Scc2, budding yeast, as it stands in the purified Scc2-Scc4 complex; Present within m1 in the cross-linking experiment; tags as told under m1; source: subunit of Scc2-Scc4 purified from budding yeast (overexpressed)
T1 sequence (looked up): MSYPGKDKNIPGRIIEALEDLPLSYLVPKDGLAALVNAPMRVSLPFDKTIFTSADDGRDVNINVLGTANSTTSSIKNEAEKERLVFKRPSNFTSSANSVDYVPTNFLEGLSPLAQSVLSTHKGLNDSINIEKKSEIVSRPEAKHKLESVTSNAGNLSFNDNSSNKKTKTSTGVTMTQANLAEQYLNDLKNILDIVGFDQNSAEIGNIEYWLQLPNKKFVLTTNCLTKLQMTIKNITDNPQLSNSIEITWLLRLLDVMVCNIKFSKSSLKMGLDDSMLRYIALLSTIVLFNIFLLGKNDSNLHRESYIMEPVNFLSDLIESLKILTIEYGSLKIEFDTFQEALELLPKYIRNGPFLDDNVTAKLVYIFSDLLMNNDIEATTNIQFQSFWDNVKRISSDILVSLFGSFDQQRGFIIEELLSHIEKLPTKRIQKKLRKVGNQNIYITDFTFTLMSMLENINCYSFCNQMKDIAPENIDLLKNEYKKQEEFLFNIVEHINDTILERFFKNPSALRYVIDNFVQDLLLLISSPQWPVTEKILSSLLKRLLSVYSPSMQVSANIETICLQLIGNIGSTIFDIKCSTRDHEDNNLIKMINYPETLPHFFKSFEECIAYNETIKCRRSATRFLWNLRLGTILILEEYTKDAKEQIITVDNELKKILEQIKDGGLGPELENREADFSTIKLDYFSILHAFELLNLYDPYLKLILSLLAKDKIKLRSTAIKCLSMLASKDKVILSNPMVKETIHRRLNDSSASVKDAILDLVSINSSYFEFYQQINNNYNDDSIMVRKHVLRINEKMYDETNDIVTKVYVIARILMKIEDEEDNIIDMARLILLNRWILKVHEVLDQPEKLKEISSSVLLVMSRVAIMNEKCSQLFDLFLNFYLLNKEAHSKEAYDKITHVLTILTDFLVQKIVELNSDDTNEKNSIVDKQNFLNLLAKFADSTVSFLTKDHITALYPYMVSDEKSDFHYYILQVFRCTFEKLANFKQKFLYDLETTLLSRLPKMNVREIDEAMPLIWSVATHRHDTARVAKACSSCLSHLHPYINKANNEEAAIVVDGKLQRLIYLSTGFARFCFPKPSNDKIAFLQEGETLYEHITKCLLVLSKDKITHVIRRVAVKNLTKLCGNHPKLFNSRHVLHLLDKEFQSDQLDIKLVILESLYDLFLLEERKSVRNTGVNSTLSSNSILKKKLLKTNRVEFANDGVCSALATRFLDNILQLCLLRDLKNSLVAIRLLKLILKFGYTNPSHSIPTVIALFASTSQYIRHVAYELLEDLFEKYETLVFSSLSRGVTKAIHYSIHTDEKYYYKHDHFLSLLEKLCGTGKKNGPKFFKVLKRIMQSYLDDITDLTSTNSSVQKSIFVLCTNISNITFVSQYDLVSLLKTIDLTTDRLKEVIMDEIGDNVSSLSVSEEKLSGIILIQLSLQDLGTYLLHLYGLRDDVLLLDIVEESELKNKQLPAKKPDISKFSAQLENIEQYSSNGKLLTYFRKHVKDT

B1: Scc4 subunit of the cohesin loader (natural protein, S. cerevisiae)
chain: MENLGDKLSISQVYHLAQEYRDHAYSIANKIGSEEGLKQYYGLMNMSIQMFQLLKTKCTLSVLEDSKVTFEMVELLIQETYNFDLAELYISSLKERLQTHQSDTDLVEEIMRCEFLLLHDLPLMRDSKFHYKIALRNCNELVQYMVNLQDELYQNWASVFQYVGVMLCIKLKQHRRVKTSFHGLLSQCREKSQWKWFLNLCYVNYLLNERFPIPEDALQELRSTELHTVGPELYAWKLALEMVIQLCKDGNITDHLNEFKNFFDTNKQSLVTNEGKGCVIKIMPRIALKVELPMIFHYKELKNILLLLQSVSYIVNCYDEKGNFSRKFLPKVYSTTQKLIKNIAAGGVSMNELDSRIQTYKSILEFCEFYKVWEQTLLKGAVVTTESPKLGPSPGYVRLLQAMKVQFEGGGAVEEYTRLAQSGGTSSEVKMISLLNCYTVQAARVSRCSGDKQGELVEQCNKVWLQVEKLLQETDLQFNPIWECTVTILWLFSHFEPFSWNPLPCSDKQRAEYVSKLREFYSSNKFVAGEAVADNRFKLKKALLLQILVNYLGGRMLEHDLGEIYAISAKCFDMCRQQGGMRKVQYVIGIWHLMNCTVAMRGKDVALTNAKLEALVKQITSVKQ
notes: Scc4, budding yeast, as it stands in the purified Scc2-Scc4 complex; Present within m1 in the cross-linking experiment; tags as told under m1; source: subunit of Scc2-Scc4 purified from budding yeast (overexpressed)
B2: Sth1, the large ATPase subunit of the RSC remodeler complex (natural protein, S. cerevisiae)
chain: MLQEQSELMSTVMNNTPTTVAALAAVAAASETNGKLGSEEQPEITIPKPRSSAQLEQLLYRYRAIQNHPKENKLEIKAIEDTFRNISRDQDIYETKLDTLRKSIDKGFQYDEDLLNKHLVALQLLEKDTDVPDYFLDLPDTKNDNTTAIEVDYSEKKPIKISADFNAKAKSLGLESKFSNATKTALGDPDTEIRISARISNRINELERLPANLGTYSLDDCLEFITKDDLSSRMDTFKIKALVELKSLKLLTKQKSIRQKLINNVASQAHHNIPYLRDSPFTAAAQRSVQIRSKVIVPQTVRLAEELERQQLLEKRKKERNLHLQKINSIIDFIKERQSEQWSRQERCFQFGRLGASLHNQMEKDEQKRIERTAKQRLAALKSNDEEAYLKLLDQTKDTRITQLLRQTNSFLDSLSEAVRAQQNEAKILHGEEVQPITDEEREKTDYYEVAHRIKEKIDKQPSILVGGTLKEYQLRGLEWMVSLYNNHLNGILADEMGLGKTIQSISLITYLYEVKKDIGPFLVIVPLSTITNWTLEFEKWAPSLNTIIYKGTPNQRHSLQHQIRVGNFDVLLTTYEYIIKDKSLLSKHDWAHMIIDEGHRMKNAQSKLSFTISHYYRTRNRLILTGTPLQNNLPELWALLNFVLPKIFNSAKTFEDWFNTPFANTGTQEKLELTEEETLLIIRRLHKVLRPFLLRRLKKEVEKDLPDKVEKVIKCKLSGLQQQLYQQMLKHNALFVGAGTEGATKGGIKGLNNKIMQLRKICNHPFVFDEVEGVVNPSRGNSDLLFRVAGKFELLDRVLPKFKASGHRVLMFFQMTQVMDIMEDFLRMKDLKYMRLDGSTKTEERTEMLNAFNAPDSDYFCFLLSTRAGGLGLNLQTADTVIIFDTDWNPHQDLQAQDRAHRIGQKNEVRILRLITTDSVEEVILERAMQKLDIDGKVIQAGKFDNKSTAEEQEAFLRRLIESETNRDDDDKAELDDDELNDTLARSADEKILFDKIDKERMNQERADAKAQGLRVPPPRLIQLDELPKVFREDIEEHFKKEDSEPLGRIRQKKRVYYDDGLTEEQFLEAVEDDNMSLEDAIKKRREARERRRLRQNGTKENEIETLENTPEASETSLIENNSFTAAVDEETNADKETTASRSKRRSSRKKRTISIVTAEDKENTQEESTSQENGGAKVEEEVKSSSVEIINGSESKKKKPKLTVKIKLNKTTVLENNDGKRAEEKPESKSPAKKTAAKKTKTKSKSLGIFPTVEKLVEEMREQLDEVDSHPRTSIFEKLPSKRDYPDYFKVIEKPMAIDIILKNCKNGTYKTLEEVRQALQTMFENARFYNEEGSWVYVDADKLNEFTDEWFKEHSS
notes: Sth1, budding yeast, as it stands in the purified RSC complex; Present within m2 in the cross-linking experiment; also called RSC ATPase; source: subunit of RSC purified from budding yeast (TAP-tagged Rsc2)
B3: Sth1 365-1097 fragment (ATPase motor module) (domain or fragment, S. cerevisiae, UniProt P32597 365-1097, looked up)
chain: DEQKRIERTAKQRLAALKSNDEEAYLKLLDQTKDTRITQLLRQTNSFLDSLSEAVRAQQNEAKILHGEEVQPITDEEREKTDYYEVAHRIKEKIDKQPSILVGGTLKEYQLRGLEWMVSLYNNHLNGILADEMGLGKTIQSISLITYLYEVKKDIGPFLVIVPLSTITNWTLEFEKWAPSLNTIIYKGTPNQRHSLQHQIRVGNFDVLLTTYEYIIKDKSLLSKHDWAHMIIDEGHRMKNAQSKLSFTISHYYRTRNRLILTGTPLQNNLPELWALLNFVLPKIFNSAKTFEDWFNTPFANTGTQEKLELTEEETLLIIRRLHKVLRPFLLRRLKKEVEKDLPDKVEKVIKCKLSGLQQQLYQQMLKHNALFVGAGTEGATKGGIKGLNNKIMQLRKICNHPFVFDEVEGVVNPSRGNSDLLFRVAGKFELLDRVLPKFKASGHRVLMFFQMTQVMDIMEDFLRMKDLKYMRLDGSTKTEERTEMLNAFNAPDSDYFCFLLSTRAGGLGLNLQTADTVIIFDTDWNPHQDLQAQDRAHRIGQKNEVRILRLITTDSVEEVILERAMQKLDIDGKVIQAGKFDNKSTAEEQEAFLRRLIESETNRDDDDKAELDDDELNDTLARSADEKILFDKIDKERMNQERADAKAQGLRVPPPRLIQLDELPKVFREDIEEHFKKEDSEPLGRIRQKKRVYYDDGLTEEQFLEAVEDDNMSLEDAIKKRREARERRRLRQ
notes: Cloned into pGEX-6P-2; also called Sth1 ATPase module; source: E. coli BL21 Star (DE3) pLysS, purified (glutathione-sepharose, 3C protease cleavage, Superdex 200)

Holding throughout (conditions): both partners purified
Test [1] concerns the target B2. In words: cross-linking; 0.5 uM cohesin loader and 0.5 uM RSC in CLMS buffer (22.5 mM HEPES-KOH pH 7.5, 75 mM NaCl, 100 mM potassium acetate, 10% glycerol, 0.5 mM TCEP), 1 mM DSSO 15 min 37 C, trypsin digest, tandem mass spectrometry; two biological repeats.
Test [2] addresses T1, Scc2 subunit of the cohesin loader. The description is as above.
Test [3] addresses T2, Scc2-Scc4 cohesin loader complex (S. cerevisiae, UniProt Q04002 1-1493; P40090 1-624).
T2 construct: Scc2, cohesin loader subunit, budding yeast; Scc4, cohesin loader subunit, budding yeast; Purified by a protein A tag that was removed by 3C protease; also called 2-4
In words: co-IP; 50 nM Scc2-Scc4 and 50 nM RSC or Sth1 365-1097 mixed in IP buffer (25 mM Tris-HCl pH 7.5, 100 mM NaCl, 2.5 mM MgCl2, 0.2% Triton X-100, 5% glycerol, 0.5 mM TCEP), loader captured on anti-HA protein A magnetic beads, last wash 300 mM NaCl; Sth1 detected by immunoblotting. (A western blot detects proteins with antibodies after separation by electrophoresis.)

Regarding B1, in test [1], the binding result is given as “binds”. Regarding B2, in test [2], the binding result is given as “binds”. For the molecule B3, the binding result in test [3] is “binds”.
